Reference: paper PMC2747663

Experiments:
[1] = target: full-length ERBB3 (pIND/TRE-based), recombinant and overexpressed in CHO cells (human) (UniProt P21860); test: cross-linking
[2] = target: soluble extracellular domains (ECD) of ERBB3, V5 and His6 epitope-tagged (human) (UniProt P21860); test: cross-linking

Substance: full-length ERBB3 (pIND/TRE-based), recombinant and overexpressed in CHO cells (from UniProt P21860 20-1342) (receptor)
- stoichiometry N [1]: 2

Substance: soluble extracellular domains (ECD) of ERBB3, V5 and His6 epitope-tagged (from UniProt P21860 20-643) (domain or fragment)
- stoichiometry N [2]: 2
